# Test results published in PMC9482650, “Quantitative fragmentomics allow affinity mapping of interactomes” (Nature Communications, 2022).
# T1: APBA1_1, Q02410
# T1 sequence (Q02410 651-752, limits assumed, looked up): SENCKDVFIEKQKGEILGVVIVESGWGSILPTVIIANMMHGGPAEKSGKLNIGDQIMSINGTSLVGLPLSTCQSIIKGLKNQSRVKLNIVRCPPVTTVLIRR
# T2: APBA1_2, Q02410
# T2 sequence (Q02410 742-832, limits assumed, looked up): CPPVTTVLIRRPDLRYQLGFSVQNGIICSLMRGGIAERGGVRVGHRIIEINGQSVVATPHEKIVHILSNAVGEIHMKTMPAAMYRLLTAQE
# T3: ARHGAP21, Q5T5U3
# T3 sequence (Q5T5U3 45-169, limits assumed, looked up): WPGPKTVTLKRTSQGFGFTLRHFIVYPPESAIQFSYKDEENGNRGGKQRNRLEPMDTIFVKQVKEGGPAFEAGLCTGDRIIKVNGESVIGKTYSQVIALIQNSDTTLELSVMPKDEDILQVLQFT
# T4: DLG3_3, Q92796
# T4 sequence (Q92796 374-475, limits assumed, looked up): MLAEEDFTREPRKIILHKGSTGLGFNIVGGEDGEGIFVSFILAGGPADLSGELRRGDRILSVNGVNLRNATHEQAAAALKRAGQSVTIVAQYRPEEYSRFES
# T5: MPDZ_10, O75970
# T5 sequence (O75970 1624-1722, limits assumed, looked up): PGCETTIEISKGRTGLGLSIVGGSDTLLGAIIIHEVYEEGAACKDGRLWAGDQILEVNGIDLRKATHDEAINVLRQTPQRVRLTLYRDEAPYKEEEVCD
# T6: MPDZ_5, O75970
# T6 sequence (O75970 695-796, limits assumed, looked up): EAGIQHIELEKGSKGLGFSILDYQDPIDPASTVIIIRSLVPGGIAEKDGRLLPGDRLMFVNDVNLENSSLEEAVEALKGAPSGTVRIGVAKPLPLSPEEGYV
# T7: MPP7, Q5T2T1
# T7 sequence (Q5T2T1 134-230, limits assumed, looked up): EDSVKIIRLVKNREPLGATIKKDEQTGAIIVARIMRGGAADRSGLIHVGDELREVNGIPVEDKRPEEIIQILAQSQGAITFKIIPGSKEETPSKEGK
# T8: NHERF3_1, Q5T2W1
# T8 sequence (Q5T2W1 4-100, limits assumed, looked up): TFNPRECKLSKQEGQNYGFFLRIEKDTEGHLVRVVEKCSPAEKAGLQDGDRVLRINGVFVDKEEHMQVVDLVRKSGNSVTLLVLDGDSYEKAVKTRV
# T9: PDZD2_2, O15018
# T9 sequence (O15018 329-429, limits assumed, looked up): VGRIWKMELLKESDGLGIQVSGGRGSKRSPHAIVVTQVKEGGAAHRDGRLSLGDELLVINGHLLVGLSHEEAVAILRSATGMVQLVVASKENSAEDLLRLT
# T10: TX1BP3, O14907
# T10 sequence (O14907 10-122, limits assumed, looked up): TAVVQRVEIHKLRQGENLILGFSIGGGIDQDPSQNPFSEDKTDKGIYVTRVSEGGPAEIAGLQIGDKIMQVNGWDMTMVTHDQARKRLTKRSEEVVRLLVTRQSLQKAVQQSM
# What was measured:
# Assay in all cases: holdup assay
# Set-up in all cases: key: below the threshold = too weak to quantify, mostly under pKd 3.1 to 4
# [1] = target: T1, APBA1_1, Q02410
# [2] = target: T2, APBA1_2, Q02410
# [3] = target: T3, ARHGAP21, Q5T5U3
# [4] = target: T4, DLG3_3, Q92796
# [5] = target: DLG4_1, P78352
# Sequence of DLG4_1, P78352 (P78352 62-152): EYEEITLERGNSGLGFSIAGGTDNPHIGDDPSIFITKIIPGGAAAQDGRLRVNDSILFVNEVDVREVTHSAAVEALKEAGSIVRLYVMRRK
# [6] = target: GRID2IP_2, A4D2P6
# Sequence of GRID2IP_2, A4D2P6 (A4D2P6 272-370): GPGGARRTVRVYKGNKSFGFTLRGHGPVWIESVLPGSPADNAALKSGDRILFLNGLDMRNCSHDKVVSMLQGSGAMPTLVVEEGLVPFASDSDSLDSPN
# [7] = target: GRIP2_3, Q9C0E4
# Sequence of GRIP2_3, Q9C0E4 (Q9C0E4 238-339): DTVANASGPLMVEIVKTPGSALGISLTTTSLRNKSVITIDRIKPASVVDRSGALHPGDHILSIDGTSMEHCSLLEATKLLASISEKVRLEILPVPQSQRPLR
# [8] = target: GRIP2_5, Q9C0E4
# Sequence of GRIP2_5, Q9C0E4 (Q9C0E4 544-642): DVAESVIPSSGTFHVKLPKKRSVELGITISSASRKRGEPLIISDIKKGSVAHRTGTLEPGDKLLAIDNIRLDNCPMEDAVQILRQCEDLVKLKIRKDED
# [9] = target: IL16_1, Q14005
# Sequence of IL16_1, Q14005 (Q14005 210-306): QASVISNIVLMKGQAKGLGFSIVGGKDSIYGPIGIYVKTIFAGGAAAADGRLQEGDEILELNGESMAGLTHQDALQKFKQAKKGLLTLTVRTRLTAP
# [10] = target: Inadl_4, Q8NI35
# Sequence of Inadl_4, Q8NI35 (Q8NI35 547-651): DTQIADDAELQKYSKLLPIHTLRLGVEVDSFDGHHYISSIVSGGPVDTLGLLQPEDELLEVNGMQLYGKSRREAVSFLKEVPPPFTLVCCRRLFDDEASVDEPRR
# [11] = target: LDB3, O75112
# Sequence of LDB3, O75112 (O75112 1-94): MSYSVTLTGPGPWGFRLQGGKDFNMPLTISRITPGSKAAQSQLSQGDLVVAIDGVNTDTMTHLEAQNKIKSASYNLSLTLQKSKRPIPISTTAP
# [12] = target: MAGI1_1, Q96QZ7
# Sequence of MAGI1_1, Q96QZ7 (Q96QZ7 1-106): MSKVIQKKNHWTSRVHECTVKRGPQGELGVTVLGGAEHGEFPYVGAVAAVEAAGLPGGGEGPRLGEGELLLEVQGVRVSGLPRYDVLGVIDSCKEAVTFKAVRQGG
# [13] = target: MAGI2_3, Q86UL8
# Sequence of MAGI2_3, Q86UL8 (Q86UL8 600-682): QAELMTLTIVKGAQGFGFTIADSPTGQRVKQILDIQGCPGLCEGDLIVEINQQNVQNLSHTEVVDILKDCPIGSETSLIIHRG
# [14] = target: MAST2, Q6P0Q8
# Sequence of MAST2, Q6P0Q8 (Q6P0Q8 1099-1202): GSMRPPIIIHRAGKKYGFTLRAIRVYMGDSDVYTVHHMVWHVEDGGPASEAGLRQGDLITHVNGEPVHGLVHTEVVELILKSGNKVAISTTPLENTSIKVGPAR
# [15] = target: T5, MPDZ_10, O75970
# [16] = target: T6, MPDZ_5, O75970
# [17] = target: T7, MPP7, Q5T2T1
# [18] = target: NHERF2_2, Q15599
# Sequence of NHERF2_2, Q15599 (Q15599 142-238): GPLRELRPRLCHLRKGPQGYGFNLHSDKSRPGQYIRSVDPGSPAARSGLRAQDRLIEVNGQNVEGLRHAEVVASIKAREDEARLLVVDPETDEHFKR
# [19] = target: T8, NHERF3_1, Q5T2W1
# [20] = target: NHERF4_2, Q86UT5
# Sequence of NHERF4_2, Q86UT5 (Q86UT5 220-308): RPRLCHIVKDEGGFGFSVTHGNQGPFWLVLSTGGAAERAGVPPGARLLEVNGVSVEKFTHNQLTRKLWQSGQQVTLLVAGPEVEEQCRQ
# [21] = target: NHERF4_4, Q86UT5
# Sequence of NHERF4_4, Q86UT5 (Q86UT5 464-550): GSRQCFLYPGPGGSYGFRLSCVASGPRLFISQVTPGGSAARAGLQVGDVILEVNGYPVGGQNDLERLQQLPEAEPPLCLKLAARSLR
# [22] = target: NOS1, P29475
# Sequence of NOS1, P29475 (P29475 9-101): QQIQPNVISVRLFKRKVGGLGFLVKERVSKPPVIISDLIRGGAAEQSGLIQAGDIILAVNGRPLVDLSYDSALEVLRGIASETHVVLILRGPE
# [23] = target: PARD3_3, Q8TEW0
# Sequence of PARD3_3, Q8TEW0 (Q8TEW0 582-685): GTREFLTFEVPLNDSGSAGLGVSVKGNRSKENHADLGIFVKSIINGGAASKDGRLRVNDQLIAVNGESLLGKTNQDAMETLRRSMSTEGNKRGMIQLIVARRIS
# [24] = target: T9, PDZD2_2, O15018
# [25] = target: PICK1, Q9NRD5
# Sequence of PICK1, Q9NRD5 (Q9NRD5 17-115): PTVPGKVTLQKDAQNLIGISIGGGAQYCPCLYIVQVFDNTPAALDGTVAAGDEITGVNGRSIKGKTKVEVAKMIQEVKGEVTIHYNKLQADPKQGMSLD
# [26] = target: SCRIB_2, Q14160
# Sequence of SCRIB_2, Q14160 (Q14160 857-960): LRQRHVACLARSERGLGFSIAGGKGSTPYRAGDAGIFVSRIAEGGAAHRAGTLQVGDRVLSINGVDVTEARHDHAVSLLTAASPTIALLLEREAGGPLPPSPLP
# [27] = target: T10, TX1BP3, O14907
# [28] = plain residues with an end cap or a label only (N-terminal biotin on a linker: ado-ado)
# [29] = plain residues with an end cap or a label only (N-terminal biotin on a linker: (peg)3)
binder,measurement,setting,value
"DDASLPVSDV [PLEKHA1, Q9HB21]",pKd,[1]; [28],below the threshold
same,pKd,[2]; [28],3.89
same,pKd,[3]; [28],3.5
same,pKd,[4]; [28],below the threshold
same,pKd,[5]; [28],below the threshold
same,pKd,[6]; [28],4.35
same,pKd,[7]; [28],below the threshold
same,pKd,[8]; [28],below the threshold
same,pKd,[9]; [28],3.89
same,pKd,[10]; [28],below the threshold
same,pKd,[11]; [28],below the threshold
same,pKd,[12]; [28],below the threshold
same,pKd,[13]; [28],below the threshold
same,pKd,[14]; [28],4.73
same,pKd,[15]; [28],3.91
same,pKd,[16]; [28],below the threshold
same,pKd,[17]; [28],below the threshold
same,pKd,[18]; [28],below the threshold
same,pKd,[19]; [28],below the threshold
same,pKd,[20]; [28],below the threshold
same,pKd,[21]; [28],below the threshold
same,pKd,[22]; [28],below the threshold
same,pKd,[23]; [28],below the threshold
same,pKd,[24]; [28],5.49
same,pKd,[25]; [28],below the threshold
same,pKd,[26]; [28],below the threshold
same,pKd,[27]; [28],3.84
"ELSATVTTDC [TRIP6, Q15654]",pKd,[1]; [28],below the threshold
same,pKd,[2]; [28],below the threshold
same,pKd,[3]; [28],4.27
same,pKd,[4]; [28],below the threshold
same,pKd,[5]; [28],below the threshold
same,pKd,[6]; [28],3.69
same,pKd,[7]; [28],below the threshold
same,pKd,[8]; [28],below the threshold
same,pKd,[9]; [28],below the threshold
same,pKd,[10]; [28],below the threshold
same,pKd,[11]; [28],3.72
same,pKd,[12]; [28],3.82
same,pKd,[13]; [28],3.56
same,pKd,[14]; [28],4.9
same,pKd,[15]; [28],below the threshold
same,pKd,[16]; [28],below the threshold
same,pKd,[17]; [28],3.65
same,pKd,[18]; [28],3.83
same,pKd,[19]; [28],below the threshold
same,pKd,[20]; [28],below the threshold
same,pKd,[21]; [28],below the threshold
same,pKd,[22]; [28],below the threshold
same,pKd,[23]; [28],below the threshold
same,pKd,[24]; [28],4.2
same,pKd,[25]; [28],3.8
same,pKd,[26]; [28],below the threshold
same,pKd,[27]; [28],3.48
"QQSMSSADSTQA [SARS-Cov2-N, P0DTC9]",pKd,[1]; [29],below the threshold
same,pKd,[2]; [29],below the threshold
same,pKd,[3]; [29],below the threshold
same,pKd,[4]; [29],below the threshold
same,pKd,[5]; [29],below the threshold
same,pKd,[6]; [29],below the threshold
same,pKd,[7]; [29],below the threshold
same,pKd,[8]; [29],below the threshold
same,pKd,[9]; [29],below the threshold
same,pKd,[10]; [29],below the threshold
same,pKd,[11]; [29],below the threshold
same,pKd,[12]; [29],below the threshold
same,pKd,[13]; [29],below the threshold
same,pKd,[14]; [29],below the threshold
same,pKd,[15]; [29],below the threshold
same,pKd,[16]; [29],below the threshold
same,pKd,[17]; [29],below the threshold
same,pKd,[18]; [29],below the threshold
same,pKd,[19]; [29],below the threshold
same,pKd,[20]; [29],below the threshold
same,pKd,[21]; [29],below the threshold
same,pKd,[22]; [29],below the threshold
same,pKd,[23]; [29],below the threshold
same,pKd,[24]; [29],below the threshold
same,pKd,[25]; [29],below the threshold
same,pKd,[26]; [29],below the threshold
same,pKd,[27]; [29],below the threshold
"EDPRVEVTQF [SLC22A9, Q8IVM8]",pKd,[1]; [28],below the threshold
same,pKd,[2]; [28],below the threshold
same,pKd,[3]; [28],below the threshold
same,pKd,[4]; [28],below the threshold
same,pKd,[5]; [28],below the threshold
same,pKd,[6]; [28],below the threshold
same,pKd,[7]; [28],below the threshold
same,pKd,[8]; [28],below the threshold
same,pKd,[9]; [28],below the threshold
same,pKd,[10]; [28],below the threshold
same,pKd,[11]; [28],below the threshold
same,pKd,[12]; [28],below the threshold
same,pKd,[13]; [28],below the threshold
same,pKd,[14]; [28],5.4
same,pKd,[15]; [28],below the threshold
same,pKd,[16]; [28],below the threshold
same,pKd,[17]; [28],below the threshold
same,pKd,[18]; [28],4.61
same,pKd,[19]; [28],4.58
same,pKd,[20]; [28],below the threshold
same,pKd,[21]; [28],below the threshold
same,pKd,[22]; [28],3.63
same,pKd,[23]; [28],below the threshold
same,pKd,[24]; [28],below the threshold
same,pKd,[25]; [28],below the threshold
same,pKd,[26]; [28],below the threshold
same,pKd,[27]; [28],below the threshold
"PPGKHLVTEV [KCNA7, Q96RP8]",pKd,[1]; [28],below the threshold
same,pKd,[2]; [28],4.17
same,pKd,[3]; [28],below the threshold
same,pKd,[4]; [28],4.33
same,pKd,[5]; [28],4.64
same,pKd,[6]; [28],4.37
same,pKd,[7]; [28],below the threshold
same,pKd,[8]; [28],below the threshold
same,pKd,[9]; [28],3.5
same,pKd,[10]; [28],below the threshold
same,pKd,[11]; [28],below the threshold
same,pKd,[12]; [28],below the threshold
same,pKd,[13]; [28],4.22
same,pKd,[14]; [28],5.21
same,pKd,[15]; [28],below the threshold
same,pKd,[16]; [28],below the threshold
same,pKd,[17]; [28],below the threshold
same,pKd,[18]; [28],below the threshold
same,pKd,[19]; [28],below the threshold
same,pKd,[20]; [28],below the threshold
same,pKd,[21]; [28],below the threshold
same,pKd,[22]; [28],3.7
same,pKd,[23]; [28],below the threshold
same,pKd,[24]; [28],4.62
same,pKd,[25]; [28],below the threshold
same,pKd,[26]; [28],4.08
same,pKd,[27]; [28],4.67
